# Measurements reported in patent publication US20240011005A1 (HUIDAGENE THERAPEUTICS, published 2024).
# Substitutions are numbered along the chain they refer to.
# T1: RhCas12f1 (ME-A.1) (Ruminiclostridium herbifermentans)
# T1 sequence: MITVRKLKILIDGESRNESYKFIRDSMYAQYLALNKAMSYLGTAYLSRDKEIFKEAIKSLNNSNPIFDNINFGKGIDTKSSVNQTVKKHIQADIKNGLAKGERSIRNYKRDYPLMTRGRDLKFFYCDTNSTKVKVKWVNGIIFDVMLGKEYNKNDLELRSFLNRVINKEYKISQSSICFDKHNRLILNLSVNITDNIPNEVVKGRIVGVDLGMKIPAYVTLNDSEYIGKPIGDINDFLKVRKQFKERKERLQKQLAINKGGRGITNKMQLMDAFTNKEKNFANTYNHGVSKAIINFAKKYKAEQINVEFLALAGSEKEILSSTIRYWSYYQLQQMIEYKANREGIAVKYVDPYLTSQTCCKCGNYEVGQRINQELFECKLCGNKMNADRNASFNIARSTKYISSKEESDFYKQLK
# T2: RhCas12f1-A273R A273R (Ruminiclostridium herbifermentans)
# T2 sequence: T1 sequence with A273R
# T3: RhCas12f1-A56R A56R (Ruminiclostridium herbifermentans)
# T3 sequence: T1 sequence with A56R
# T4: RhCas12f1-I264R I264R (Ruminiclostridium herbifermentans)
# T4 sequence: T1 sequence with I264R
# T5: RhCas12f1-L270R (enRhCas12f1) (Ruminiclostridium herbifermentans)
# T5 sequence: T1 sequence with L270R
# T6: RhCas12f1-S130R S130R (Ruminiclostridium herbifermentans)
# T6 sequence: T1 sequence with S130R
# T7: RhCas12f1-T131R T131R (Ruminiclostridium herbifermentans)
# T7 sequence: T1 sequence with T131R
# T8: RhCas12f1-Y125R Y125R (Ruminiclostridium herbifermentans)
# T8 sequence: T1 sequence with Y125R
# T9: OsCas12f1 (ME-B.3) (Oscillibacter sp.)
# T9 sequence: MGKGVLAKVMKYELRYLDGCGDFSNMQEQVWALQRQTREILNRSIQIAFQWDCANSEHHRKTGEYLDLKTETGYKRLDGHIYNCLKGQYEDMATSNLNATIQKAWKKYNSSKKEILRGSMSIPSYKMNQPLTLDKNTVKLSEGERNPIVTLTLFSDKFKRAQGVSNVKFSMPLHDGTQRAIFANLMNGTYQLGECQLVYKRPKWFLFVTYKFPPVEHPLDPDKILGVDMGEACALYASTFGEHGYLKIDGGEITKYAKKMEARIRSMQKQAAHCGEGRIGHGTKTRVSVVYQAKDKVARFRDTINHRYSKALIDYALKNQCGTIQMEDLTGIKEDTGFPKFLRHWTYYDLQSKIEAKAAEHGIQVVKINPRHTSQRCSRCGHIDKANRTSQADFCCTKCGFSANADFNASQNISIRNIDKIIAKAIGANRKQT
# B1: OsCas12f1 (ME-B.3) (enzyme)
# chain: T9 sequence
# notes: Purified recombinant protein used in size-exclusion chromatography; Entered as the single polypeptide; also called WTOsCas12f1; Cas12f1 from Oscillibacter sp; not shown: C-terminal 6xHis tag
# B2: RhCas12f1 (ME-A.1) (enzyme)
# chain: T1 sequence
# notes: Purified recombinant protein used in size-exclusion chromatography; Entered as the single polypeptide; also called WTRhCas12f1; Cas12f1 from Ruminiclostridium herbifermentans; not shown: C-terminal 6xHis tag
# Tests used:
# [1] = test system: T1, RhCas12f1 (ME-A.1) (Ruminiclostridium herbifermentans); test: cell_activity
# [2] = test system: T2, RhCas12f1-A273R A273R (Ruminiclostridium herbifermentans); test: cell_activity; settings: PAM CCCA
# [3] = test system: T3, RhCas12f1-A56R A56R (Ruminiclostridium herbifermentans); test: cell_activity; settings: PAM CCCA
# [4] = test system: T4, RhCas12f1-I264R I264R (Ruminiclostridium herbifermentans); test: cell_activity; settings: PAM CCCA
# [5] = test system: T5, RhCas12f1-L270R (enRhCas12f1) (Ruminiclostridium herbifermentans); test: cell_activity; settings: PAM CCCA
# [6] = test system: T6, RhCas12f1-S130R S130R (Ruminiclostridium herbifermentans); test: cell_activity; settings: PAM CCCA
# [7] = test system: T7, RhCas12f1-T131R T131R (Ruminiclostridium herbifermentans); test: cell_activity; settings: PAM CCCA
# [8] = test system: T8, RhCas12f1-Y125R Y125R (Ruminiclostridium herbifermentans); test: cell_activity; settings: PAM CCCA
# [9] = test system: T9, OsCas12f1 (ME-B.3) (Oscillibacter sp.); test: cell_activity
# [10] = target: the molecule itself; test: size-exclusion chromatography (Superdex 200 Increase 10/300) of Cas12f1 RNP assembled with sgRNA; self-association (homodimer)
molecule,measurement,setting,value
ACGGUUGAUUUAGCAACCGAAGUCUGAGGGCAUGUAGAAAAAAGUAUAGGUAUAUACCAACAUACUUGCAUUGCCACUCGGAAAGGGUUAACCUUGGUCAUUGUGUUACCGACCAAGCAUUCCAGAAAUGGAAUGUAAAUCCAUUACAGUAGGAGCAUACUUUUAUUUUUUU / CCCACCATTACAGTAGGAGCATAC / GTATGCTCCTACTGTAATGGTGGG,activity,"[1]; PAM CCCA, HEK293T",61.5 % GFP+
same,activity,[2],75.3 % GFP+
same,activity,[3],73 % GFP+
same,activity,[4],75 % GFP+
same,activity,[5],73.8 % GFP+
same,activity,[6],76.1 % GFP+
same,activity,[7],77.2 % GFP+
same,activity,[8],73.3 % GFP+
ACGGUUGAUUUAGCAACCGAAGUCUGAGGGCAUGUAGAAAAAAGUAUAGGUAUAUACCAACAUACUUGCAUUGCCACUCGGAAAGGGUUAACCUUGGUCAUUGUGUUACCGACCAAGCAUUCCAGAAAUGGAAUGUAAAUGGGUCUUCGAGAAGACCUUUUUAUUUUUUU / CCCACCATTACAGTAGGAGCATAC / GTATGCTCCTACTGTAATGGTGGG,activity,[1]; non-targeting spacer,0.62 % GFP+
AGGGACGACUUCCCGUCCCAAAAUCGAGACAGUAGCCGUAAAACUUUGAGUUUCAGAGUGGGCGACACACUCGAAAAGGUUAAGAUAUGCACAUAGUAAUCCGUGCAUGAGCCGCGAAAGCGGCUUGAAGGGGGUCUUCGAGAAGACCUUUUUAUUUUUUU / TTTCCCATTACAGTAGGAGCATACGGG / CCCGTATGCTCCTACTGTAATGGGAAA,activity,[9]; non-targeting spacer,0.55 % GFP+
AGGGCCGACUUCCCGGCCCAAAAUCGAGACAGUAGCCGUAAAACUUUGAGUUUCAGAGUGGGCGACACACUCGAAAAGGUUAAGAUAUGCACAUAGUAAUCCGUGCAUGAGCCGCGAAAGCGGCUUGAAGGCCAUUACAGUAGGAGCAUACUUUUAUUUUUUU / TTTCCCATTACAGTAGGAGCATACGGG / CCCGTATGCTCCTACTGTAATGGGAAA,binding signal (fold vs WT scaffold),[9]; PAM TTTC,1.56
B1,binding result,[10],binds
B2,binding result,[10],binds
